Test results published in publication PMC2878922 (2011).

Assays:
CD47 ECD [1] = molecular target: T1, CD47 ECD (Mus musculus, UniProt Q61735); test: flow cytometry saturation binding on CD47-coated beads
T1 chain: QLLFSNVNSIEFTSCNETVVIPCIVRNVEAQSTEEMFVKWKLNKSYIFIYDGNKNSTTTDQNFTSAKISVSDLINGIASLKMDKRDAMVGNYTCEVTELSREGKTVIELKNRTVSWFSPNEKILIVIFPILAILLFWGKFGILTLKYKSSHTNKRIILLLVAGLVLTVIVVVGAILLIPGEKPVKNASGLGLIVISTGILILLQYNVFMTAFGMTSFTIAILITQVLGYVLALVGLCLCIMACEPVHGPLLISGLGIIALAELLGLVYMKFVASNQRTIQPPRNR

CD47 ECD [2] = molecular target: CD47 ECD (Homo sapiens, UniProt Q08722); test: as above
CD47 ECD (Homo sapiens, UniProt Q08722), sequence (Q08722 19-323): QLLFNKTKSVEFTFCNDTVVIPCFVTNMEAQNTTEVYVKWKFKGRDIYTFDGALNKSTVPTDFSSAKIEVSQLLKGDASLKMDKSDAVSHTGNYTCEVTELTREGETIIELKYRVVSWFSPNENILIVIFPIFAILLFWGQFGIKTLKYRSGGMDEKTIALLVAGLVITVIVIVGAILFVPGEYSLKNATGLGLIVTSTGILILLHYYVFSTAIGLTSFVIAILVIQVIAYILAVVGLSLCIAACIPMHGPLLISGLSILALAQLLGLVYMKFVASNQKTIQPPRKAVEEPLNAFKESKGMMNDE

Kd (CD47 ECD [1]): 220 nM
Kd (CD47 ECD [2]): 220 nM
B1: SIRPα (variant 129_IgV, GST fusion) ECD (protein)
chain: KELKVTQPEKSVSVAAGDSTVLNCTLTSLLPVGPIRWYRGVGPSRLLIYSFAGEYVPRIRNVSDTTKRNNMDFSIRISNVTPADAGIYYCVKFQKGSSEPDTEIQSGGGTEVYVLAKPSPPEVSGPADRGIPDQKVNFTCKSHGFSPRNITLKWFKDGQELHPLETTVNPSGKNVSYNISSTVRVVLNSMDVNSKVICEVAHITLDRSPLRGIANLSNFIRVSPTVKVTQQSPTSMNQVNLTCRAERFYPEDLQLIWLENGNVSRNDTPKNLTKNTDGTYNYTSLFLVNSSAHREDVVFTCQVKHDQQPAITRNHTVLGFAHSSDQGSMQTFPDNNATHNWN
